From patent US20160272694A1 (EDIMER PHARMACEUTICALS, published 2016)

Target: T1, Recombinant human IgG1 Fc (hFc) (human, UniProt P01857-1 100-330 = IgG part)
T1 construct: domain: Fc; Bought reagent; also called Recombinant Human IgG Fc
Experiment: sandwich ELISA: hEDAR-mFc coated, anti-human IgG (Fc) CH2-HRP detection
Procedure: For validation, ELISA plates (96-well Microtiter Plates, Nunc 96F Maxisorp (Thermo Fisher, Pittsburgh, Pa.)) were coated with 1 μg/mL hEDARmFc coating solution. For the binding step, standards, QCs, Blank (assay buffer alone), and other required samples were added to the appropriate wells of an assay plate. Plates were incubated for approximately 120 minutes and then washed. For the detection step, the detection reagent was added to each required well and the plate was incubated for approximately 60 minutes and then washed. For the substrate step, Ultra TMB (1-Step Ultra TMB-ELISA Substrate (Thermo Scientific, Pittsburgh, Pa.)) was added to each well and the plate was incubated for approximately 20 to 30 minutes. Color development was monitored at 650 nm so that development could be discontinued when the OD of the 250 ng/mL standard was between 1.3 and 1.4. To stop the color reaction, 2N sulfuric acid was added to each well. The OD at 450 nm was determined with the correction wavelength set at 540 nm.

binding result: no binding (tested: 100 ng/mL)
B1: hEDAR-mFc (Fc fusion, human, UniProt Q9UNE0 27-183, looked up)
chain: EYSNCGENEYYNQTTGLCQECPPCGPGEEPYLSCGYGTKDEDYGCVPCPAEKFSKGGYQICRRHKDCEGFFRATVLTPGDMENDAECGPCLPGYYMLENRPRNIYGMVCYSCLLAPPNTKECVGATSGASANFPGTSGSSTLSPFQHAHKELSGQGH
notes: Capture reagent from Edimer Pharmaceuticals, coated at 1 µg/mL; also called capture reagent; not shown: mouse Fc (mFc)
